Reference: article PMC3382428

How the values were obtained:
[1] = target: gp130 on human cord blood Lin-CD34+ cells (human (endogenous in cord blood Lin-CD34+ cells)) (UniProt P40189)
[2] = target: gp130 on Ba/F3-gp130 cells (UniProt P40189)
[3] = target: IL-6R (Homo sapiens) (UniProt P08887); conditions: cited from earlier work
Chain of IL-6R (Homo sapiens) (P08887 20-355): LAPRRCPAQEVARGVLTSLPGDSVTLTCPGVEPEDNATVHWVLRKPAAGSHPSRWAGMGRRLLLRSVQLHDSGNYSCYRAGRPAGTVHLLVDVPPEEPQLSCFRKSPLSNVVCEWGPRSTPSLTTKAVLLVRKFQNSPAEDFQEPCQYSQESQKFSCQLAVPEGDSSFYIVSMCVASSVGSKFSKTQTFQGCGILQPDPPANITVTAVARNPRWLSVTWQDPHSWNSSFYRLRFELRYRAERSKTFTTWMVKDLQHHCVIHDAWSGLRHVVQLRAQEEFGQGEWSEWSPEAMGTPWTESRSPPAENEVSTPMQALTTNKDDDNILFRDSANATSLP

Chain of gp130 on Ba/F3-gp130 cells (P40189 23-918): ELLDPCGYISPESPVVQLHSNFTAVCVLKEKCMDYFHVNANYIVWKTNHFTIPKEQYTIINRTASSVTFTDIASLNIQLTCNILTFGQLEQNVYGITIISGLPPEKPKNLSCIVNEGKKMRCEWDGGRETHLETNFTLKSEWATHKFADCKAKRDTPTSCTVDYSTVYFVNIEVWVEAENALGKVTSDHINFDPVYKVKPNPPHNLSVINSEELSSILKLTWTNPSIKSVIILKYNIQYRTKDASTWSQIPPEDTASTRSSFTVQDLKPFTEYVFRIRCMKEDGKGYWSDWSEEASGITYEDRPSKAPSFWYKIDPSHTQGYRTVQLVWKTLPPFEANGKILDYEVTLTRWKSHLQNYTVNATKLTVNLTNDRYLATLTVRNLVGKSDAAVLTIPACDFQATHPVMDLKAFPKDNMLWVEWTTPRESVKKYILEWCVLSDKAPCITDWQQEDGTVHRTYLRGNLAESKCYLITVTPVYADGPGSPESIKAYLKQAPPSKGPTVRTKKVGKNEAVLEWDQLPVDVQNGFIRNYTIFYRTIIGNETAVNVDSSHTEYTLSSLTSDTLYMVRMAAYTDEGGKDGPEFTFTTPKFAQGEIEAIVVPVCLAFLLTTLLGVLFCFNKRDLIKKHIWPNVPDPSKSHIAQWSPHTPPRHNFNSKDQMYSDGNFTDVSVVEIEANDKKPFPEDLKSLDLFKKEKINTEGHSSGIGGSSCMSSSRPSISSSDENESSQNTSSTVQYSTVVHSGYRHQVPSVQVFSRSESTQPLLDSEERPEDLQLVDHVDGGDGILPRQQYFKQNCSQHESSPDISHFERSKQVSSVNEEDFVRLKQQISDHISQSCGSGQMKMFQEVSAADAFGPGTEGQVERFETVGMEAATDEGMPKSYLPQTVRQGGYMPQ
Chain of IL-6 (P05231 30-212): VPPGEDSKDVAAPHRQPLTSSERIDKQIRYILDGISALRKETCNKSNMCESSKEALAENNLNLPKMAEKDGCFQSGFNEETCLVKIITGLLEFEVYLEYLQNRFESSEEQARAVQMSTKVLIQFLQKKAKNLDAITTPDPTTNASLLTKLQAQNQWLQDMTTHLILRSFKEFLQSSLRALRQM
Chain of gp130 on human cord blood Lin-CD34+ cells (human (endogenous in cord blood Lin-CD34+ cells)) (P40189 23-918): as the sequence (P40189 23-918) above

CD235a+ (erythroid) cells in Lin-CD34+ liquid culture with 50 ng/ml H11, day 14, flow cytometry (27% with Hyper-IL-6, 20% in control culture) [1] [%] | proliferation of Ba/F3-gp130 cells (MTT, 72 h): dose of H11 for half-maximum proliferation [2] [pM] | Substance | Kd [3] [nM]
39 | 800 to 900 | Hyper IL-11 (H11) (from UniProt Q14626 23-365; P20809 19-199) | 
 |  | IL-6 (from UniProt P05231) | 1
